Measured values reported in US20220364069A1, “METHOD FOR THE PRODUCTION OF AN ENZYMATIC COMPOSITION COMPRISING A RECOMBINANT ENDOPEPTIDASE” (NEMYSIS LIMITED, priority 2019, published 2022).
Entries after “also recorded” stand apart in the source; their conditions may differ.

Legend:
[1] = Activity of culture supernatant toward sucAAPF-AMC at various pH; assay type: biochemical; conditions: recombinant E40 culture supernatant
Description: FIG. 1. Activity of Actinoallomurus A8 culture supernatant fraction containing the native E40. A: relative activity toward the substrate sucAlaAlaProPhe-AMC (sucAAPF-AMC) at various pH values (the optimum —100% activity— is at pH 5). B: Gliadin digestion after 2 hours of incubation at 37° C., pH 3. Gel stained with Coomassie R250 brilliant blue; Lane 1: gliadin alone, lane 2: gliadin+E40-containing supernatant fraction.
FIG. 3. Recombinant E40 (SEQ ID NO: 2) obtained by S. lividans TK24/p1J86/e40 submerged fermentation, at flask scale (panels A-C) or in a 15 L bioreactor, followed by purification (panels D-E). A: activity toward the substrate sucAAPF-AMC at pH 5 of supernatant samples taken at different fermentation times (♦72, ▴96, ●168, ▪192 fermentation hours) from the producing S. lividans TK24/p1J86/E40 (E40, continuous line) and absence of activity of supernatant samples taken from the pIJ86-empty control strain (ctr, dashed lines). Activity is shown as relative fluorescent units (rfu, Y axis) produced in time (X axis). […] D: profile of an enzyme preparation comprising recombinant E40 purified from the 15 L fermentation; lane 1: final enzyme preparation comprising recombinant E40 stained with Coomassie (the arrow indicates recombinant E40), lane 2: zymography as in C, lane 3: band of gelatin hydrolysis after 2 hours of digestion at 37° C. and pH 5, visualized after Coomassie staining of the gelatin substrate. E: relative activity (%) of recombinant E40 in the purified enzyme preparation at different pH values (from 2 to 8), evaluated with the substrate suc-Ala-Ala-Pro-Phe-pNA.
As well as native E40, recombinant E40 was active in the pH range 3-6, with an optimum at pH 5 (FIG. 3, panel B).

[2] = biological target: T1, pepsin (Sus scrofa, UniProt P00791); test: Resistance of E40 to pepsin (suc-Ala-Ala-Pro-Phe-pNA cleavage); assay type: biochemical; conditions: pH 4, 4.5 and 5; protease 1:2 (w/w) versus E40; 110 minutes, 37° C.
T1 construct: purchased Sigma-Aldrich (Milan, Italy)
T1 sequence (P00791 60-385): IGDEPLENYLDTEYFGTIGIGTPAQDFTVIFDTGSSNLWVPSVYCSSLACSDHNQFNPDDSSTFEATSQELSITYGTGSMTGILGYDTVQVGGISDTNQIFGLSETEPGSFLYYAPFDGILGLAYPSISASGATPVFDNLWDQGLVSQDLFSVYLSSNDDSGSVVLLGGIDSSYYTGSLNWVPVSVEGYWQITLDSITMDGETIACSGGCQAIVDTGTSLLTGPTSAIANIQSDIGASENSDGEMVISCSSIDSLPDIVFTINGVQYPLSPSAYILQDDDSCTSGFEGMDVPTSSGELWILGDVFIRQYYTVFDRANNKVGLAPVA
Description: The resistance of recombinant E40, obtained by the method of the invention, to the proteolytic activity of gastric (pepsin) and duodenal (trypsin) digestive proteases was further evaluated (FIG. 4), using suc-Ala-Ala-Pro-Phe-pNA as substrate. Aqueous solutions of E40 enzyme, alone or in combination with pepsin and/or trypsin (0.2 mg/ml E40, 0.1 mg/ml Pepsin or Trypsin), were diluted in citrate-phosphate buffer containing suc-Ala-Ala-Pro-Phe-pNA at pH 4, 4.5 and 5 for pepsin, and at pH 6 and 7 for trypsin. Final concentrations in reaction mix were: 200 μM substrate, 1-4 nM E40 for incubations at pH 4 to 5, or 4 nM and 7 nM for incubations at pH 6 or 7, respectively (E40 concentration was adjusted according to optimum pH). The digestive protease was maintained in the ratio 1:2 (w/w) versus E40.
Reactions (200 μl volume in 96-wells flat bottom ptiter plates) were protracted for 110 minutes at 37° C. Absorbance was monitored every 10 min for determining the enzymatic activity. Pepsin and trypsin without E40 were processed in the same way and tested in the same condition as reference control. Each analysis was carried out in duplicate.

[3] = system: 33-mer gliadin peptide; test: Digestion of 33-mer gliadin peptide monitored by LC-MS/MS; assay type: biochemical
Sequence of 33-mer gliadin peptide (as listed by the source): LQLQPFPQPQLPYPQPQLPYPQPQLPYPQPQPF
Description: The 33-mer gliadin peptide degradation was monitored by LC-MS/MS, before (FIG. 5, panel A) and after (FIG. 5, panels B-E) digestion by recombinant E40. Digestion was performed in U-bottom 96-wells microtiter plate; 33-mer was diluted in citrate phosphate buffer (pH 5) to 5 mg/ml, mixed with the enzyme preparation comprising recombinant E40 diluted in the same buffer (1:48 enzyme vs substrate molar ratio) and incubated at 37° C. At the time points 0, 15, 30 and 60 minutes, aliquots (10 μl) were taken, and reactions were stopped by boiling for 3 minutes before being analyzed by LC-MS/MS.
Samples were analyzed by HPLC system Accela Instrument (Thermo Fisher Scientific, San Jose, Calif.) coupled to both UV detector and LTQ-XL ion trap mass spectrometer (Thermo Fisher Scientific). […] E40 cleaving site occurs between F-P and Q-L residues of gliadin, leading to short peptides lacking of T-cell stimulatory capacity (FIG. 5, F)^3. This finding was also observed at more diluted E40 concentration (1:96, molar ratio): in that case complete 33-mer degradation took 30 minutes (not shown).

[4] = system: CD4+ T-cell lines from intestinal biopsies of CD patients; test: IFN-γ production of gliadin reactive intestinal T-cell lines exposed to gliadin digests; assay type: cell-based, human; conditions: samples A-H; digests at 50 and 100 μg/ml; 48 hours; assay sensitivity 32 pg/ml
Description: In order to evaluate the capability of gliadin preparations to activate a T-cell response, the different gliadin enzymatic digests (samples A-L in FIGS. 7A and 7B) deamidated by tTG treatment, were assayed on CD4+ T-cell lines previously established from intestinal biopsies of CD patients^11 (Table 3).
Briefly, intestinal mononuclear cells were stimulated with irradiated autologous peripheral blood mononuclear cells (PBMCs) and deamidated pepsin-chymotrypsin digested gliadin extracted from the hexaploid wheat. Growing T cells were kept in culture by repeated stimulation with heterologous irradiated PBMCs and PHA, and IL-2 as a growth factor. […] In the functional assays, the immune response of TCLs to gliadin enzymatic digests (samples A-L, Table 1 and FIGS. 7A and B) was assayed by detecting IFN-γ production. T cells (3×10^4) were co-incubated with irradiated autologous EBV-transformed, B-lymphoblastoid cell lines (B-LCLs, 1×10^5), in 200 μL of complete medium (X-Vivol5 supplemented with 5% human serum and penicillin-streptomycin antibiotics, all reagents supplied by Lonza-BioWhittaker, Verviers, Belgium) in U-bottom 96-well plates. After a 48 hours incubation, cell supernatants (50 μL) were collected for IFN-γ determination. […] IFN-γ was measured by a classic sandwich ELISA using purified and biotin-conjugated anti-IFN-γ Abs purchased from Mabtech (Nacka Strand, Sweden). […]

[5] = system: gluten of bread; test: In vitro oral-gastric digestion of bread, gluten by Elisa-R5 competitive; assay type: biochemical, T. aestivum
Description: In order to evaluate the efficiency of E40 enzyme as oral supplement to abolish the gluten intake in patients, in vitro oral-gastric digestion model was applied. Digestion step of bread (T. aestivum) was carried out under simulated physiological condition including oral mastication and presence of digestive gastric enzymes. Digestion time was selected according to the average time of chyme's transit in the gastric compartments. E40 enzyme preparation was added at beginning of the simulated gastric phase. The destruction of the T cell epitopes and toxic peptides was tested using monoclonal antibodies (Elisa-R5 competitive), according to the manufacturer's and to the AOAC guidelines.

B1: E40: Actinoallomurus endopeptidase with glutenase activity, sequence comprising SEQ ID NO: 1; recombinant histidine-tagged form SEQ ID NO: 2 from S. lividans (protein)
chain: AAPSGLSPANLQSAYKLPSSTAGSGQTVAIVDAYDAPTAEADLNVYRSQFGLGACTTANGCFKKVDQNGGTSYPRKDGGWAQEISLDLDMVSAVCPNCKIVLVEAKTNSFANLGTAENTAASLANVISNSYGGSDASDASYGSYYNHPGKAITVSSGDAGYGVEYPASSHYVTAVGGTSLRTASTSRGWSETAWSGAGSGCSAYNTALSGQSGLTGCSRRAVADVSAVADPATGVAVYDSTAYQGQSGWMVFGGTSVAAPIIGGVYGLAANAASIDNNYPYAHTSSLFDVTSGSNGTCTTTKWCTAGTGWDGPTGLGTPNGTGAFGHHHHHH
modifications: Actinoallomurus
pH range of activity [1]: 3-6
pH optimum of relative activity ([1]; 168 hours of fermentation, sucAAPF-AMC): 5
E40 cleaving activity in presence of pepsin [2]: unaffected; also recorded: slightly enhanced
time to complete disappearance of native 33-mer peptide signal ([3]; 1:48 enzyme vs substrate molar ratio, pH 5, 37° C.): 15 min
time to complete 33-mer degradation ([3]; 1:96 molar ratio): 30 min
IFN-γ production of T cells exposed to E40-digested gliadins [4]: no detectable IFN-γ production
gluten content of bread digest (Elisa-R5) ([5]; E40 added at beginning of simulated gastric phase): 16.2 ppm (ng/mL)
gluten content of digested bread including E40 ([5]; oral-gastric digest): < 20 ppm
